Data set [1] deals with the molecule itself. The experiment in a line: cryo-EM structure; full-length CNGA3/CNGB3 co-expressed and co-purified, in 0.02% GDN, 50 mM HEPES-Na pH 8.58, 150 mM NaCl, 0.1 mM TCEP, 2 mM EGTA, 2 mM cGMP; three states (closed, intermediate 1, intermediate 2), C1 symmetry.
The target of data set [2] is T1, human CNGB3, full-length (human, UniProt Q9NQW8-1 1-809, N339 glycosylation site).
T1 construct: human cone photoreceptor cyclic nucleotide-gated channel subunit CNGB3, NCBI NP_061971.3, full length; modelled residues L206 to R643; One copy of this subunit stands with three CNGA3 in the channel tetramer; Cloned in the vector pEZT-BM (Addgene #74099); source: HEK 293S GnTi- cells (BacMam), co-infected with CNGA3 virus, purified (amylose resin, StrepTrap, Superose 6) in GDN
T1 sequence (looked up): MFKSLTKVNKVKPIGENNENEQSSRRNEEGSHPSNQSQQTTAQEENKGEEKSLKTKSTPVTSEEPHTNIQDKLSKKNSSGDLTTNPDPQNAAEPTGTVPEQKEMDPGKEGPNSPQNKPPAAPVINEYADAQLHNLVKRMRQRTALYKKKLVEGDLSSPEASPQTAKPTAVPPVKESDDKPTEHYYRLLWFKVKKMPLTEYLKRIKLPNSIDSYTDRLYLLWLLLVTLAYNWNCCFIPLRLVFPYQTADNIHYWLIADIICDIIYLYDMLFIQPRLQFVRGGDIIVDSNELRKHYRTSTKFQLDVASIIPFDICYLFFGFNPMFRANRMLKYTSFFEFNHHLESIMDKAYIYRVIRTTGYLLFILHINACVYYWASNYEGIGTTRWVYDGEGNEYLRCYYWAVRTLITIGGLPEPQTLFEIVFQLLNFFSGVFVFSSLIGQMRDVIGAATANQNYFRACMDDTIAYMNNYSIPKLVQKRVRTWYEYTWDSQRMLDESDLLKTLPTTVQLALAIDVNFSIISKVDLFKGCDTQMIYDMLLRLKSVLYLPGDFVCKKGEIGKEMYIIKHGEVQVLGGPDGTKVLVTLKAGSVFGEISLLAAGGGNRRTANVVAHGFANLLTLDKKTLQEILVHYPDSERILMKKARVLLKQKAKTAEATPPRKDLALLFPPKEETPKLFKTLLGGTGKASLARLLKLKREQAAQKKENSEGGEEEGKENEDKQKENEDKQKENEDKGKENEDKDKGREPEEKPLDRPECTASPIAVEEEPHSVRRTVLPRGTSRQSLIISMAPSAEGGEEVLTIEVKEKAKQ
Described as above. The settings on record: both partners purified.

Data set [3] concerns the molecule itself. The experiment in a line: cryo-EM structure; truncated CNGA3/CNGB3 co-expressed (P2A) and co-purified, in POPG/POPC (1:1) nanodiscs with MSP2N2, 50 mM HEPES-Na pH 8.58, 150 mM NaCl, 0.1 mM TCEP, 2 mM EGTA, 4 mM cGMP; five states (closed, intermediate 1, intermediate 2, pre-open, open), C1 symmetry.
Data set [4] deals with T2, truncated human CNGB3 (amino acids 79-809) (human, UniProt Q9NQW8-1 79-809).
T2 construct: human CNGB3, NCBI NP_061971.3, amino acids 79-809 (amino acids 1-78 removed); Expressed as trunCNGA3-P2A-trunCNGB3 from one pEZT-BM vector; a residue of the P2A linker may precede the FLAG tag (surmised); also called truncated CNGB3; trunCNGB3
T2 sequence (looked up): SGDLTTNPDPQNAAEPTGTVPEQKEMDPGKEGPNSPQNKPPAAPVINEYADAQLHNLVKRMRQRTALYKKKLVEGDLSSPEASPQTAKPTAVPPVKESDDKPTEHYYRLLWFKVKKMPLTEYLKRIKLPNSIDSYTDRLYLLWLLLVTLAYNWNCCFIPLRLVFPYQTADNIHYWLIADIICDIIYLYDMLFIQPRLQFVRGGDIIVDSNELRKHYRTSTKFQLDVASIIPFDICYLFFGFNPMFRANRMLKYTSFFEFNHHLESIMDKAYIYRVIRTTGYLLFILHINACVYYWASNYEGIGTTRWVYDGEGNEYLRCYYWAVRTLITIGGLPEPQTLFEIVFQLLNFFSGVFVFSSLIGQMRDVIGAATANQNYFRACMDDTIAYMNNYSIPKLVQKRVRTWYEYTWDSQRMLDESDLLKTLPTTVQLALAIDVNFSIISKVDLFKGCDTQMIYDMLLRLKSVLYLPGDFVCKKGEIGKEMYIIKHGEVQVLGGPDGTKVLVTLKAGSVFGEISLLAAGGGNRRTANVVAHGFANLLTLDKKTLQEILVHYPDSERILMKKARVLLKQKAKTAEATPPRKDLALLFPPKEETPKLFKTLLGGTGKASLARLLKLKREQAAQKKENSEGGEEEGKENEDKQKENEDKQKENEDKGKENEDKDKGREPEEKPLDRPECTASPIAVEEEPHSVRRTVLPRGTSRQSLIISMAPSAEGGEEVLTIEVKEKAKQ
Described as above. The settings on record: both partners purified.

Here are results for two molecules from article PMC10354024, “Conformational trajectory of allosteric gating of the human cone photoreceptor cyclic nucleotide-gated channel” (Nature Communications, 2023).

B1: human CNGA3, full-length (natural protein, UniProt Q16281-1 1-694, looked up)
chain: MAKINTQYSHPSRTHLKVKTSDRDLNRAENGLSRAHSSSEETSSVLQPGIAMETRGLADSGQGSFTGQGIARLSRLIFLLRRWAARHVHHQDQGPDSFPDRFRGAELKEVSSQESNAQANVGSQEPADRGRSAWPLAKCNTNTSNNTEEEKKTKKKDAIVVDPSSNLYYRWLTAIALPVFYNWYLLICRACFDELQSEYLMLWLVLDYSADVLYVLDVLVRARTGFLEQGLMVSDTNRLWQHYKTTTQFKLDVLSLVPTDLAYLKVGTNYPEVRFNRLLKFSRLFEFFDRTETRTNYPNMFRIGNLVLYILIIIHWNACIYFAISKFIGFGTDSWVYPNISIPEHGRLSRKYIYSLYWSTLTLTTIGETPPPVKDEEYLFVVVDFLVGVLIFATIVGNVGSMISNMNASRAEFQAKIDSIKQYMQFRKVTKDLETRVIRWFDYLWANKKTVDEKEVLKSLPDKLKAEIAINVHLDTLKKVRIFQDCEAGLLVELVLKLRPTVFSPGDYICKKGDIGKEMYIINEGKLAVVADDGVTQFVVLSDGSYFGEISILNIKGSKSGNRRTANIRSIGYSDLFCLSKDDLMEALTEYPEAKKALEEKGRQILMKDNLIDEELARAGADPKDLEEKVEQLGSSLDTLQTRFARLLAEYNATQMKMKQRLSQLESQVKGGGDKPLADGEVPGDATKTEDKQQ
notes: human cone photoreceptor cyclic nucleotide-gated channel subunit CNGA3, NCBI NP_001289.1, full length; modelled residues about A158-I159 to D609-L614; Three copies of this subunit stand with one CNGB3 in the channel tetramer; MBP was cut off with P3C protease; residues of the P3C site may remain at the N-terminus; Cloned in the vector pEZT-BM (Addgene #74099); also called CNGA3L; A3L; source: HEK …
Regarding B1, the binding result in data set [1] is reported as “binds”. Moreover, in data set [2], the “stoichiometry N” value is 3 A3 per B3.

B2: truncated human CNGA3 (amino acids 152-694) (domain or fragment, UniProt Q16281-1 152-694, looked up)
chain: KTKKKDAIVVDPSSNLYYRWLTAIALPVFYNWYLLICRACFDELQSEYLMLWLVLDYSADVLYVLDVLVRARTGFLEQGLMVSDTNRLWQHYKTTTQFKLDVLSLVPTDLAYLKVGTNYPEVRFNRLLKFSRLFEFFDRTETRTNYPNMFRIGNLVLYILIIIHWNACIYFAISKFIGFGTDSWVYPNISIPEHGRLSRKYIYSLYWSTLTLTTIGETPPPVKDEEYLFVVVDFLVGVLIFATIVGNVGSMISNMNASRAEFQAKIDSIKQYMQFRKVTKDLETRVIRWFDYLWANKKTVDEKEVLKSLPDKLKAEIAINVHLDTLKKVRIFQDCEAGLLVELVLKLRPTVFSPGDYICKKGDIGKEMYIINEGKLAVVADDGVTQFVVLSDGSYFGEISILNIKGSKSGNRRTANIRSIGYSDLFCLSKDDLMEALTEYPEAKKALEEKGRQILMKDNLIDEELARAGADPKDLEEKVEQLGSSLDTLQTRFARLLAEYNATQMKMKQRLSQLESQVKGGGDKPLADGEVPGDATKTEDKQQ
notes: human CNGA3, NCBI NP_001289.1, amino acids 152-694 (amino acids 1-151 removed); Expressed as trunCNGA3-P2A-trunCNGB3 from one pEZT-BM vector; also called truncated CNGA3; trunCNGA3
As to B2, the binding result in data set [3] and in data set [4] was “binds” each time.

As a reminder, the stoichiometry N is the number of molecules, sites or subunits per partner or assembly.
